We go through one substance from US20210309702A1.

The experiment has as its target signal regulatory protein a (SIRPa) (mouse) (UniProt P97797). Kind of experiment: cell-based or functional assay.
UniProt P97797, sequence (P97797 32-513): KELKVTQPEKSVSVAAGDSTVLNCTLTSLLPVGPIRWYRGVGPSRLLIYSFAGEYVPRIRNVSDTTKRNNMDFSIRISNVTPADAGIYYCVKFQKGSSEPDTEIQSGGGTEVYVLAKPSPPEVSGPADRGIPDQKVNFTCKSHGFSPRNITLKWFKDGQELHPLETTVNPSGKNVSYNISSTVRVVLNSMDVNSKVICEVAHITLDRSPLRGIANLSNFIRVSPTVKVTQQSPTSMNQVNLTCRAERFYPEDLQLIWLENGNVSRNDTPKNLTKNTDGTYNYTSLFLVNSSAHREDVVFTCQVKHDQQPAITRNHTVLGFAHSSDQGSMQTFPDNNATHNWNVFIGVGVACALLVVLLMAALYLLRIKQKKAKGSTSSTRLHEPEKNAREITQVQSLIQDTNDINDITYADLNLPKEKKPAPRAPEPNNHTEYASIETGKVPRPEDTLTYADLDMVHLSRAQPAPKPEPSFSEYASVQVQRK

Consider “Myc and GFP11-tagged mouse CD47 (CD47-Myc-GFP11) (from UniProt Q61735 19-303)”, for which the Gectosomes depleted by RAW 264.7 macrophages after 3 h (BlaM activity remaining in the media) is 10 % depleted and the Gectosomes depleted by RAW 264.7 macrophages after 6 h (BlaM activity remaining in the media) worked out at 50 % depleted.
